Test results published in US20240270874A1 (JIANGSU HENGRUI PHARMACEUTICALS, published 2024).
Positions count from the first letter of the chain named. Names and notes keep the numbering of the source.

T1: human KLB on CHOK1-hKLB cells (human, UniProt Q86Z14 1-1044)
T1 construct: whole, on cells; also called human KLB antigen; β-Klotho
T1 sequence (looked up): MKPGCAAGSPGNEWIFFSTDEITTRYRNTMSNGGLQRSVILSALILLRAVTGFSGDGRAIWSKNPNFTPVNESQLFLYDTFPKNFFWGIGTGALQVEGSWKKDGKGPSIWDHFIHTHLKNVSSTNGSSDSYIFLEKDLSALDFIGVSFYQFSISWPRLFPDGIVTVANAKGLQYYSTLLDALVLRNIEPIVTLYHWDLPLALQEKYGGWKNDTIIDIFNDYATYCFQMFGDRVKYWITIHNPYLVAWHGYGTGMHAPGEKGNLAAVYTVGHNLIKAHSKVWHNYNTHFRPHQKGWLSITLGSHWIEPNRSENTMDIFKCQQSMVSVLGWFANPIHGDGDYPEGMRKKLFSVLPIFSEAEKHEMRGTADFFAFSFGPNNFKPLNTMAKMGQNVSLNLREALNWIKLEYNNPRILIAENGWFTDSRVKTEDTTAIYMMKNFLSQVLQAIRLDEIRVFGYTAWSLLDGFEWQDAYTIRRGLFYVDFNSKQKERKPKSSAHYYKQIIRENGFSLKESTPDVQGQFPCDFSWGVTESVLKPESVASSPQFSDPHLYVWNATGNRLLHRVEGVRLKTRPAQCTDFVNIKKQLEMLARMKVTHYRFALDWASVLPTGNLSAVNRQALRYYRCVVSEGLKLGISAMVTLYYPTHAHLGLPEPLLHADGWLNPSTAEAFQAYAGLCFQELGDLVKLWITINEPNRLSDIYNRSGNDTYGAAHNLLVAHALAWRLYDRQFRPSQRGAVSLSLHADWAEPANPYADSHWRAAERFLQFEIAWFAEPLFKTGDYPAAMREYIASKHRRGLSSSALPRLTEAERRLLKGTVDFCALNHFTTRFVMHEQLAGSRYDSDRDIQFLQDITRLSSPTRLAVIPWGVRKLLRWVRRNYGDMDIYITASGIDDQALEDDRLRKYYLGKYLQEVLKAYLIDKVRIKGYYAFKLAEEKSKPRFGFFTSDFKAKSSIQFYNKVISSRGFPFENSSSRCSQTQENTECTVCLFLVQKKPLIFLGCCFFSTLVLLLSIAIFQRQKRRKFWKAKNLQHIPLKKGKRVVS

B1: mAb-18 (antibody, V domains shown)
VH: QVQLQQSGPELVRPGVSVKISCKGSGYTFTDYAMHWVKQTHAKSLEWIGVISTYSGTTNYNQNFKGKATVTVDKSSSTAYMELARLTSEDSAIYYCARSGPLDYWGQGTSLTVSS
VL: ENVLTQSPAIMSASPGEKVTMTCRASSSVSSSYLHWYQQKSGASPKLWIYSTSNLASGVPERFSGSGSGTSYSLTISSVEAEDAATYYCQQYSGYPLTFGSGTKLEIK
notes: murine hybridoma antibody; also called murine antibody mAb-18
B2: mAb-99 (antibody, V domains shown)
VH: EVQLQQSGAELVRPGSSVKMSCKTSGYTFTNYGINWVKQRPRQGLEWIGYIYIGNGDIEYNAKFKGKATLTSDTSSSTAYMQLSSLTSEDSAIYFCARGRGLGHFDVWGTGTTVTVSS
VL: DVQITQSPSYLAASPGETITINCRASKSISKFLAWFQEKPGKTNKLLIYSGSTLQSGIPSRFSGSGSGTDFTLTISGLEPEDFAMYYCQQHNEYPWTFGGGTKLEIK
notes: murine hybridoma antibody; also called murine antibody mAb-99
B3: mAb18-hIgG1 (antibody, V domains shown)
VH: B1 VH
VL: ENVLTQSPAIMSASPGEKVTMTCRASSSVSSSYLHWYQQKSGASPKLWIYSTSNLASGVPERFSGSGSGTSYSLTISSVEAEDAATYYCQQYSGYPLTFGSGTKLEIKR
notes: chimeric: murine mAb-18 variable regions on human IgG1 (L234A, L235A) / kappa constant regions; also called chimeric antibody of mAb18
B4: mAb99-hIgG1 (antibody, V domains shown)
VH: B2 VH
VL: DVQITQSPSYLAASPGETITINCRASKSISKFLAWFQEKPGKTNKLLIYSGSTLQSGIPSRFSGSGSGTDFTLTISGLEPEDFAMYYCQQHNEYPWTFGGGTKLEIKR
notes: chimeric: murine mAb-99 variable regions on human IgG1 (L234A, L235A) / kappa constant regions; also called chimeric antibody of mAb99
B5: hAb18-9 (antibody, human IgG1, kappa, L234A L235A, V domains shown)
VH: EVQLVQSGAEVKKPGASVKVSCKASGYTFTDYAMHWVRQAPGQRLEWMGVISTYSGTTNYNQNFKGRVTITVDKSASTAYMELSSLRSEDTAVYYCARSGPLDYWGQGTTVTVSS
VL: ENVLTQSPDFQSVTPKEKVTITCRVSSSVSSSYLHWYQQKPDQSPKLWIYSTSQLASGVPSRFSGSGSGTDYTLTINSLEAEDAATYYCQQYSGYPLTFGQGTKLEIKR
notes: humanized mAb-18: hAb18VH1 + hAb18VL2-3; human IgG1 (L234A, L235A) / kappa constant regions
B6: hAb18-15 (antibody, human IgG1, kappa, L234A L235A, V domains shown)
VH: B5 VH
VL: B5 VL with Q54N
notes: humanized mAb-18: hAb18VH1 + hAb18VL2-9; human IgG1 (L234A, L235A) / kappa constant regions
B7: hAb18-13 (antibody, human IgG1, kappa, L234A L235A, V domains shown)
VH: B5 VH
VL: B5 VL with V25A, S28N
notes: humanized mAb-18: hAb18VH1 + hAb18VL2-7; human IgG1 (L234A, L235A) / kappa constant regions
B8: hAb18-17 (antibody, human IgG1, kappa, L234A L235A, V domains shown)
VH: B5 VH
VL: B5 VL with V25A, S30T, Q54N
notes: humanized mAb-18: hAb18VH1 + hAb18VL2-11; human IgG1 (L234A, L235A) / kappa constant regions
B9: hAb18-10 (antibody, human IgG1, kappa, L234A L235A, V domains shown)
VH: B5 VH
VL: B5 VL with V25A, S31T
notes: humanized mAb-18: hAb18VH1 + hAb18VL2-4; human IgG1 (L234A, L235A) / kappa constant regions
B10: hAb18-19 (antibody, human IgG1, kappa, L234A L235A, V domains shown)
VH: B5 VH
VL: B5 VL with V25A, S28N, Q54N
notes: humanized mAb-18: hAb18VH1 + hAb18VL2-13; human IgG1 (L234A, L235A) / kappa constant regions
B11: hAb18-14 (antibody, human IgG1, kappa, L234A L235A, V domains shown)
VH: B5 VH
VL: B5 VL with V25A, S26T, Q54N
notes: humanized mAb-18: hAb18VH1 + hAb18VL2-8; human IgG1 (L234A, L235A) / kappa constant regions
B12: hAb18-18 (antibody, human IgG1, kappa, L234A L235A, V domains shown)
VH: B5 VH
VL: B5 VL with V25A, V29L, Q54N
notes: humanized mAb-18: hAb18VH1 + hAb18VL2-12; human IgG1 (L234A, L235A) / kappa constant regions
B13: hAb18-12 (antibody, human IgG1, kappa, L234A L235A, V domains shown)
VH: B5 VH
VL: B5 VL with V25A, V29L
notes: humanized mAb-18: hAb18VH1 + hAb18VL2-6; human IgG1 (L234A, L235A) / kappa constant regions
B14: hAb18-11 (antibody, human IgG1, kappa, L234A L235A, V domains shown)
VH: B5 VH
VL: B5 VL with V25A, S30T
notes: humanized mAb-18: hAb18VH1 + hAb18VL2-5; human IgG1 (L234A, L235A) / kappa constant regions
B15: hAb18-16 (antibody, human IgG1, kappa, L234A L235A, V domains shown)
VH: B5 VH
VL: B5 VL with V25A, S31T, Q54N
notes: humanized mAb-18: hAb18VH1 + hAb18VL2-10; human IgG1 (L234A, L235A) / kappa constant regions

These binders were tested against T2, human FGFR1c on cells (human, UniProt P11362 22-822) (assay: hybridoma clone screening on recombinant cells).
T2 construct: whole, on cells; also called hFGFR1c; CHOK1-hFGFR1c
T2 sequence (P11362 22-822): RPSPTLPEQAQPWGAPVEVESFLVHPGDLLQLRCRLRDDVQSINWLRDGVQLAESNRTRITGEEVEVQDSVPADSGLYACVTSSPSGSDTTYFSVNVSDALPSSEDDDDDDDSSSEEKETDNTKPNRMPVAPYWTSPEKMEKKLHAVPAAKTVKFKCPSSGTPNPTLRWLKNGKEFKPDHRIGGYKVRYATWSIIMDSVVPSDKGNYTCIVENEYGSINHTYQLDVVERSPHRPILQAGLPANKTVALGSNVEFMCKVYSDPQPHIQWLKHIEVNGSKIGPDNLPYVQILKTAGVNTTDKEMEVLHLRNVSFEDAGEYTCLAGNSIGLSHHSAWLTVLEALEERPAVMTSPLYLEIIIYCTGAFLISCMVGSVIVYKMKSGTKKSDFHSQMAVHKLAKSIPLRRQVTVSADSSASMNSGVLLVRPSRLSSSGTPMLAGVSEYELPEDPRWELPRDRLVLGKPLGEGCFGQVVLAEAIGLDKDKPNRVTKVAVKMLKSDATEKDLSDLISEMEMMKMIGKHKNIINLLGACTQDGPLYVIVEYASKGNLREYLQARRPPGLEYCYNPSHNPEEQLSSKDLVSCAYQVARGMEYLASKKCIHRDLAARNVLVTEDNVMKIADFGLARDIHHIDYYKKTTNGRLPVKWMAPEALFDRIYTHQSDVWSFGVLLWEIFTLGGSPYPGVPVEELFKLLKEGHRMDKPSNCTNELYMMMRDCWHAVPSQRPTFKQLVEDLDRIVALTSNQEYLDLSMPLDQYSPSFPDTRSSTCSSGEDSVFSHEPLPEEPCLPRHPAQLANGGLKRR

| binding result | Binder |
| --- | --- |
| no binding | B1 |
| no binding | B2 |

What follows are binders tested against T1, human KLB on CHOK1-hKLB cells (assay: flow cytometry on CHOK1-hKLB cells).
Excerpt: The above heavy chain variable regions were fused to the heavy chain constant region (set forth in SEQ ID NO: 22) and the light chain variable regions were fused to the light chain constant region (set forth in SEQ ID NO: 23) to construct anti-KLB antibodies, and the binding activity of the obtained antibodies for CHOK1-hKLB was detected (see Test Example 2 of the present disclosure for the experimental method).
The binding ability of the antibodies for CHOK1 cell strains CHOK1-hKLB and CHOK1-cynoKLB overexpressing human KLB and monkey KLB (see Example 1 for specific preparation procedure), respectively, was detected by flow cytometry. The specific procedure was as follows: the above cells were cultured in 10% FBS-containing IMDM medium and incubated in an incubator at 37° C. and 5% CO₂ for 2 days. The cells were then added to a cell plate at 1×10⁵ cells per well, centrifuged at 300 g for 5 min, and then washed once with 1% BSA. The antibody diluted in gradient was added to the cell plate at 100 μL per well, and the mixture was incubated at 4° C. for 1 h and washed once with 1% BSA. The diluted (1:400) APC-goat anti-human IgG Fc fluorescent secondary antibody was added at 100 μL per well, and the resulting mixture was incubated at 4° C. for 1 h. The plate was washed three times with 1% BSA, PBS was added at 100 μL per well, and the plate was read.

| EC50 [nM] | Binder |
| --- | --- |
| 2.16 | B3 |
| 0.97 | B4 |
| 2.4 | B5 |
| 1.9 | B6 |
| 5.4 | B7 |
| 1.8 | B8 |
| 2.7 | B9 |
| 4.1 | B10 |
| 1.6 | B11 |
| 1.7 | B12 |
| 1.9 | B13 |
| 2.7 | B14 |
| 2.4 | B15 |
